The labels stand for the following.
B1: anti-TIM-1 mAb 1.29 (antibody, human IgG2, V domains shown)
VH: QVQLQESGPGLVKPSETLSLTCTVSGGSVSSGGYYWSWIRQPPGKGLEWIGFIYYTGSTNYNPSLKSRVSISVDTSKNQFSLKLSSVTAADAAVYYCARDYDWSFHFDYWGQGTLVTVSS
VL: DIQMTQSPSSLSASIGDRVTITCRASQGIRNDLGWYQQKPGKAPKRLIYAASSLQSGVPSRFSGSGSGTEFTLTISSLQPEDFATYYCLQHNSYPLTFGGGTKVEIKR
B2: anti-TIM-1 mAb 2.61 (antibody, human IgG4, V domains shown)
VH: QVQLVEAGGGVVQPGRSLRLSCAASGFTFRSYGMHWVRQAPGKGLKWVAVIWYDGSNKYYTDSVKGRFTISRDNSKNTLYLQMNSLRAEDTAVYYCVRDYYDNSRHHWGFDYWGQGTLVTVSS
VL: B1 VL with L11R, S12C, I15V, G34A, G66R, T85A, L96P, T97S, G100Q, V104L
B3: anti-TIM-1 mAb 2.70 (antibody, V domains shown)
VH: B2 VH with A7S, T28I, R30S, S31R, Y59L, T61A, V97A
VL: DIVMTQTPLSLPVTPGEPASISCRSSRSLLDSDDGNTYLDWYLQKPGQSPQLLIYTLSYRASGVPDRFSGSGSGTDFTLKISRVEAEDVGVYYCMQRVEFPITFGQGTRLEIKR
B4: anti-TIM-1 mAb 1.37 (antibody, human IgG2, V domains shown)
VH: EVQLVESGGGLVQPGGSLRLSCAASGFTFTNYWMSWVRQAPGKGLEWVANIQQDGSEKYYVDSVRGRFTISRDNAKNSLYLQMNSLRAEDSAVYYCARWDYWGQGTLVTVSS
VL: DIVMTQTPLSSTVILGQPASISCRSSQSLVHSDGNTYLNWLQQRPGQPPRLLIYMISNRFSGVPDRFSGSGAGTDFTLKISRVEAEDVGVYYCMQATESPQTFGQGTKVEIKR

Numbering of substitutions follows the chain as printed.

Among the data in patent US20050084449A1 are Kd values, retold here.

This experiment has as its target TIM-1 antigen (soluble extracellular domain of TIM-1, CG57008-02, with a V5-HIS tag) (human) (UniProt Q96D42). Kind of experiment: BIAcore 2000, mAb captured on goat anti-human surface, TIM-1 antigen injected, 25 C.
For the molecule B1, the Kd turned out to be 3.64 nM.
Then B2, with 1 nM; and B3, with 2.71 nM.
Then B4, with 2.78 nM.

In general, Kd refers to the free concentration of one partner at which half of the binding sites on the other are occupied at equilibrium, for simple one-to-one binding. Higher therefore signals a looser complex.
